Test [1] has as its target recombinant mouse FGFR2b (mouse) (UniProt P21803). The test can be described thus: ELISA, antibody 1ug/mL. A general note: An ELISA detects its analyte on a solid surface through an enzyme-linked reagent.
In test [2] the target is T1, FGFR4 (acro) (UniProt P22455).
T1 sequence (looked up): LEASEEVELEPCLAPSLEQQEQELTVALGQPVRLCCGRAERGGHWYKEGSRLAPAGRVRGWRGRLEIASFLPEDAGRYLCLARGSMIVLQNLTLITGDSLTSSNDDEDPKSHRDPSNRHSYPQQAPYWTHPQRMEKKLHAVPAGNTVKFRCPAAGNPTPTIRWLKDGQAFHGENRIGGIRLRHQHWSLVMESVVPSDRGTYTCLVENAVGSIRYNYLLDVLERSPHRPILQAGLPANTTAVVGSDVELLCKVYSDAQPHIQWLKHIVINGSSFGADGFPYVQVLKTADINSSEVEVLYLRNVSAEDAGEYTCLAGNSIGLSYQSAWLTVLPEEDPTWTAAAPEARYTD
In words: ELISA, antibody 10 µg/mL.

In test [3] the target is FGFR2c (acro) (UniProt P21802). The test can be described thus: ELISA, antibody 10 µg/mL.
In test [4] the target is FGFR1 (acro) (UniProt P11362). The test can be described thus: ELISA, antibody 10 µg/mL.
In test [5] the target is recombinant mouse FGFR2b (mouse) (UniProt P21803). The test can be described thus: BLI, antibody on AHC2 sensor.
Sequence of recombinant mouse FGFR2b (mouse) (P21803 22-377): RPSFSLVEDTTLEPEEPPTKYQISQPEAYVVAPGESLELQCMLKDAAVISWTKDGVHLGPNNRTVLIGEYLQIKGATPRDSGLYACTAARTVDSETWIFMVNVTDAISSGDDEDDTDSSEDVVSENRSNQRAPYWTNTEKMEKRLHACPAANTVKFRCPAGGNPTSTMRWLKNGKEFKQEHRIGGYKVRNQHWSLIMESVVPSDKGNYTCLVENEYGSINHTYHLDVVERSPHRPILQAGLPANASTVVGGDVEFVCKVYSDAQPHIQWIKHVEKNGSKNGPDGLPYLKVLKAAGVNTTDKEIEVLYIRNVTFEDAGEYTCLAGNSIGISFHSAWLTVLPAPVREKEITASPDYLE

Sequence of FGFR2c (acro) (P21802 22-377): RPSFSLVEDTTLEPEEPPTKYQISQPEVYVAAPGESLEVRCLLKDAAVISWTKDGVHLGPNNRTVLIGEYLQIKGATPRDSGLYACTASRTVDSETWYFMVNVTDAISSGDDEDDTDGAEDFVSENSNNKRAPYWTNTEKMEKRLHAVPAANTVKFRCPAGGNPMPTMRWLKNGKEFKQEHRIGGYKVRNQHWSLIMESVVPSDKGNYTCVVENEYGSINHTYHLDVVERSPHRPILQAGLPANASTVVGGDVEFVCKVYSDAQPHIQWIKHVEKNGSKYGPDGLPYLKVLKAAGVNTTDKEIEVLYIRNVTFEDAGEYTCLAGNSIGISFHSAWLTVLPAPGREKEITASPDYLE
Sequence of FGFR1 (acro) (P11362 22-376): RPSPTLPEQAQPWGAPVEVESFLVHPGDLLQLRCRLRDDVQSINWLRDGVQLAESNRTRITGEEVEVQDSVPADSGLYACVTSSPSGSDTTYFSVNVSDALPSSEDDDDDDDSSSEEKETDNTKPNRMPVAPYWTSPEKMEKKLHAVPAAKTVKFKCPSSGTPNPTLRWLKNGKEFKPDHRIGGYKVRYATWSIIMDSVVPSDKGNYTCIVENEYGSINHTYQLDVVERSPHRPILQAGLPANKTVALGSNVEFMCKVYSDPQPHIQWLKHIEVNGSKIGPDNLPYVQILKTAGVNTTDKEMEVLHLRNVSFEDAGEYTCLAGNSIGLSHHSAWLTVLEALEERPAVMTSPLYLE

B1: 1G6 scFv-Fc (Fc fusion)
chain: EIQLQQSGAELVKPGASVKMSCKASGYTFRYYNMHWVKRTPGQGLEWIGLIYPDNGDTSYNQKFKGKATLTADTSSSTAYMQLSSLTSEDSAVYYCARGGLDYWGQGTSLTVSSGGGGSGGGGSGGGGSNIVMTQSHKFMSTSVGDRVSITCKASQDVNTDVAWYQQKPGQSPKLLIYSASYRYTGVPTRFTGSGSGTDFTFTISGVQAEDLADYYCQQHYNTPYTFGGGTKLELKESKYGPPCPPCPAPEAAGGPSVFLFPPKPKDTLMISRTPEVTCVVVDVSQEDPEVQFNWYVDGVEVHNAKTKPREEQFNSTYRVVSVLTVLHQDWLNGKEYKCKVSNKGLPSSIEKTISKAKGQPREPQVYTLPPSQEEMTKNQVSLTCLVKGFYPSDIAVEWESNGQPENNYKTTPPVLDSDGSFFLYSKLTVDKSRWQEGNVFSCSVMHEALHNHYTQKSLSLSLG
By Kd is commonly meant a measure of binding affinity in units of concentration. For orientation: koff means the first-order rate constant of dissociation. A word on the kon: it is the rate constant with which the complex forms. Turning to B1, the OD (450 nm) value in test [1] amounted to 2.76; in test [2], 0.232; in test [3], 0.176; in test [4], 0.217. For the same molecule, the Kd in test [5] amounted to 42.2 nM. In addition, the koff in test [5] was 0.00128 s⁻¹. Further, the kon in test [5] was found to be 30400 M⁻¹ s⁻¹.

B2: 3E3 scFv-Fc (Fc fusion)
chain: QVQLQQPGAVLVKPGASVRMSCKASGYTFPYYNVHWVKRTPGQGLEWIGLIYPDNGDTSYNQKFTGKATLTADTSSSTAYMQLSSLTSEDSAVYYCARGGLDYWGQGTTLTVSAGGGGSGGGGSGGGGSDVQITQSPASLSASVGETVTITCGASENIYGALNWYQRKQGKSPQLLIYGATNLADGMSSRFSGSGSGRQYSLKISSLHPDDVATYYCQNVLSTPYTFGGGTKLEIKESKYGPPCPPCPAPEAAGGPSVFLFPPKPKDTLMISRTPEVTCVVVDVSQEDPEVQFNWYVDGVEVHNAKTKPREEQFNSTYRVVSVLTVLHQDWLNGKEYKCKVSNKGLPSSIEKTISKAKGQPREPQVYTLPPSQEEMTKNQVSLTCLVKGFYPSDIAVEWESNGQPENNYKTTPPVLDSDGSFFLYSKLTVDKSRWQEGNVFSCSVMHEALHNHYTQKSLSLSLG
As to B2, the OD (450 nm) value in test [1] came out at 3.06; in test [2], 0.265; in test [3], 0.199; in test [4], 0.19. Besides, the Kd in test [5] was found to be 52.7 nM. In addition, the koff in test [5] amounted to 0.00214 s⁻¹. In addition, the association rate constant (kon) in test [5] was determined as 40500 M⁻¹ s⁻¹.

B3: 3D7 scFv-Fc (Fc fusion)
chain: QVQLQQSGAELVKPGASVKMSCKASGYTFSFYNMHWVKRTPGRGLEWIGLIYPDNGDTSYNQKFKGKATLTADTSSSTAYMQLSSLTSEDSAVYYCARGGLDYWGQGTSLTVSSGGGGSGGGGSGGGGSEIVLTQSPASLAVSLGQRATISCKASQSVDYDGDSYMNWYQQKPGQPPKLLIYGISNRFSGVPDRFSGSGSGTDFTLKISTIKPEDLGMYYCLQGTHQPYTFGGGTKLEIKESKYGPPCPPCPAPEAAGGPSVFLFPPKPKDTLMISRTPEVTCVVVDVSQEDPEVQFNWYVDGVEVHNAKTKPREEQFNSTYRVVSVLTVLHQDWLNGKEYKCKVSNKGLPSSIEKTISKAKGQPREPQVYTLPPSQEEMTKNQVSLTCLVKGFYPSDIAVEWESNGQPENNYKTTPPVLDSDGSFFLYSKLTVDKSRWQEGNVFSCSVMHEALHNHYTQKSLSLSLG
For the molecule B3, the OD (450 nm) value in test [1] amounted to 2.48. The molecule further yielded an OD (450 nm) value in test [2] of 0.256. The molecule further yielded an OD (450 nm) value in test [4] of 0.192. For the same molecule, in test [5], the Kd came to 81.7 nM, the off-rate (koff) was determined as 0.00238 s⁻¹ and the kon is 29100 M⁻¹ s⁻¹.

B4: 3G10 scFv-Fc (Fc fusion)
chain: EVQLQQSGPELVKPGASVKMSCKASGYTFATYNMHWVKQTTGQGLEWIGAIYPDNGDTFYNRKFKDKATLTADKSSTTAYMQLSSLTSEDSAVYYCARGDFAYWGQGTLVTVSAGGGGSGGGGSGGGGSDVLMTQSPASLSASVGETVTITCGASENIYGALNWYQRKQGKSPQLLIYGATNLADGMSSRFSGSGSGRQYSLKISSLHPDDVATYYCQNVLSTPYTFGGGTKLEMKESKYGPPCPPCPAPEAAGGPSVFLFPPKPKDTLMISRTPEVTCVVVDVSQEDPEVQFNWYVDGVEVHNAKTKPREEQFNSTYRVVSVLTVLHQDWLNGKEYKCKVSNKGLPSSIEKTISKAKGQPREPQVYTLPPSQEEMTKNQVSLTCLVKGFYPSDIAVEWESNGQPENNYKTTPPVLDSDGSFFLYSKLTVDKSRWQEGNVFSCSVMHEALHNHYTQKSLSLSLG
As to B4, the OD (450 nm) value in test [1] is 3. The same molecule gave an OD (450 nm) value in test [2] of 0.175. Besides, the OD (450 nm) value in test [4] stood at 0.083. Besides, in test [5], the Kd came out at 41.9 nM, the off-rate constant (koff) amounted to 0.00195 s⁻¹ and the kon turned out to be 46600 M⁻¹ s⁻¹.

B5: 1A3 scFv-Fc (Fc fusion)
chain: QVQLQQPGAELVKPGASVKMSCKASGYTFASYNLHWVKQTPGQGLEWIGLIYPENGDTSYNQKFKGKATLTADKSSSTAYIQLSSLTSEDSAVYFCARGGFDYWGQGTTLTVSQGGGGSGGGGSGGGGSDIQMTQSPASLSASVGETVTITCGASENIYGALNWYQRKQGKSPQLLIYGATNLADGMSSRFSGSGSGRQYSLKISSLHPDDVATYYCQNVLSTPYTFGGGTKLEIKESKYGPPCPPCPAPEAAGGPSVFLFPPKPKDTLMISRTPEVTCVVVDVSQEDPEVQFNWYVDGVEVHNAKTKPREEQFNSTYRVVSVLTVLHQDWLNGKEYKCKVSNKGLPSSIEKTISKAKGQPREPQVYTLPPSQEEMTKNQVSLTCLVKGFYPSDIAVEWESNGQPENNYKTTPPVLDSDGSFFLYSKLTVDKSRWQEGNVFSCSVMHEALHNHYTQKSLSLSLG
For the molecule B5, the OD (450 nm) value in test [1] came out at 1.81. Moreover, the OD (450 nm) value in test [3] is 0.134. In test [4], this molecule showed an OD (450 nm) value of 0.143. Further, in test [5], the Kd was determined as 99.8 nM, the koff was 0.0054 s⁻¹ and the on-rate constant (kon) is 54200 M⁻¹ s⁻¹.

These data come from patent EP4714976A1.
